The supplement of paper PMC9876800

System: peptide library, one residue held at a place counted from the S/T acceptor
Assay: relative phosphorylation of the sub-library (ratio to the mean residue at this position); higher = residue favoured
Method in brief: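 Relative sub-library phosphorylation is a ratio to the mean residue at the same position. Purified recombinant kinases were incubated under kinase-specific conditions with biotinylated degenerate peptide sub-libraries, each fixing one residue at one position around a central Ser/Thr, using 50 μM peptide and 50 μM ATP spiked with γ-32P-ATP for 90 min. Spots captured on streptavidin membranes were phosphorimaged and quantified by densitometry.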

MARK4, construct: Full length, human, sequence (Q96L34 whole entry, looked up): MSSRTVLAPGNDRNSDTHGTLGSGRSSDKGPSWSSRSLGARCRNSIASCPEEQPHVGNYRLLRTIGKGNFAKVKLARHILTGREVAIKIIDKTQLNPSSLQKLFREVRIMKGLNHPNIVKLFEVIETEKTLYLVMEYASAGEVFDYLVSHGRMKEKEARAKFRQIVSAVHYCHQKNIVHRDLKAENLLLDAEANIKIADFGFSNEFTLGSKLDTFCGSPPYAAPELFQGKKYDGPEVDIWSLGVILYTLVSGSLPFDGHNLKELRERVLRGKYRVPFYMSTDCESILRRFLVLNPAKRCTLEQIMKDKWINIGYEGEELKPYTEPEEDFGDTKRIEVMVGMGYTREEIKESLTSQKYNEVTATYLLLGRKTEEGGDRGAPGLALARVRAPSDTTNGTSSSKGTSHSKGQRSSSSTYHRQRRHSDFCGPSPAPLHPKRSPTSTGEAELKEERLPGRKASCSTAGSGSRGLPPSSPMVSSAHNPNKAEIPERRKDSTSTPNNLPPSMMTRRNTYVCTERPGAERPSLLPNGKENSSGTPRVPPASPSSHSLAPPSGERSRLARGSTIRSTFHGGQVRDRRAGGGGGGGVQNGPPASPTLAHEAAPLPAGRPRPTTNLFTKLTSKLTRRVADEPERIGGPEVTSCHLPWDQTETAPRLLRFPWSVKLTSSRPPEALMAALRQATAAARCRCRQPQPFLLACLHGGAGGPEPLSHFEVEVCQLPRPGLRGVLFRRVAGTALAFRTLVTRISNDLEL
MYLK4, construct: Full length, human, sequence (Q86YV6 whole entry, looked up): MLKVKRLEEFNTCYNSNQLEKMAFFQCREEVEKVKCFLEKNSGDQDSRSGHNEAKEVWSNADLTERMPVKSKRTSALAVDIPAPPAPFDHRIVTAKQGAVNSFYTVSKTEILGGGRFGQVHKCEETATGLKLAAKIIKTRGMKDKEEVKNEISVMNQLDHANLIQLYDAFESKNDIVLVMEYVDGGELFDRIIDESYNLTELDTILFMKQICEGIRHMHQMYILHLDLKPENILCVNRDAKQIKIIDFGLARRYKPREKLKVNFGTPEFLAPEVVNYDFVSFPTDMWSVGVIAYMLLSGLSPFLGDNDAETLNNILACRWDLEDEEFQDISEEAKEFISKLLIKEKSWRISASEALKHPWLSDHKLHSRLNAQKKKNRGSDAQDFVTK
MARK2, construct: Full length, human, sequence (Q7KZI7 whole entry, looked up): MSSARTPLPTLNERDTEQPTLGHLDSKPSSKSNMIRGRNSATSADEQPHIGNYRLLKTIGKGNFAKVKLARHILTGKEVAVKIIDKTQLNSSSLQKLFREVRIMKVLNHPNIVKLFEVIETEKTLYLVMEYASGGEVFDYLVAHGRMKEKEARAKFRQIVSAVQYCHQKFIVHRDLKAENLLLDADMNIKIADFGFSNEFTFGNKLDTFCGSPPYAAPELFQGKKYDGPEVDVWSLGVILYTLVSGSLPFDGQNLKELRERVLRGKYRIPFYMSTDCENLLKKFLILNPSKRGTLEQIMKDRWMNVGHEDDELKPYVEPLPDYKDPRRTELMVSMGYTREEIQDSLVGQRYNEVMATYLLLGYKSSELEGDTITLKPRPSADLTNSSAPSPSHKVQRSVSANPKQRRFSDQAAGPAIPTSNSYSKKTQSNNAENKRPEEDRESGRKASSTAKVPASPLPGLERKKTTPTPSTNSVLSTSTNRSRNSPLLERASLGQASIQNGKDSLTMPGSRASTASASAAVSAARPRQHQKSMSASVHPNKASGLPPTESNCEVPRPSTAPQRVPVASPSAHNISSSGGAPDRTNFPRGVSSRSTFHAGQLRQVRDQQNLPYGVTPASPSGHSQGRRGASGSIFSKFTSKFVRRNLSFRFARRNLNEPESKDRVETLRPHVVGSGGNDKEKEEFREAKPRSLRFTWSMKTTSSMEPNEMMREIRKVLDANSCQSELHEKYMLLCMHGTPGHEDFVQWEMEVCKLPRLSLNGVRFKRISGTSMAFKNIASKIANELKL
MYLK, construct: aa1425-1771, human, sequence (Q15746 1425-1771, looked up): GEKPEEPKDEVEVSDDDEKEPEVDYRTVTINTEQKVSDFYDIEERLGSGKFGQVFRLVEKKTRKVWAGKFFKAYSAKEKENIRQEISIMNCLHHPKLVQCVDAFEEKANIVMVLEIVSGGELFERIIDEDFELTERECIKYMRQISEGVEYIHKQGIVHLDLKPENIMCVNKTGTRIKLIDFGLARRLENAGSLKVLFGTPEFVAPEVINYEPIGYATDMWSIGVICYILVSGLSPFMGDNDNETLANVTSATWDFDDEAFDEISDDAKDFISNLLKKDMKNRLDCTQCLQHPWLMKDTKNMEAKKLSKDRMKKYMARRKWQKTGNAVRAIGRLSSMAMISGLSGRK

MARK2, construct: Full length, human (from UniProt Q7KZI7)
relative phosphorylation
Settings	at +1	at +2	at +3	at +4	at -1	at -2	at -3	at -4	at -5
A fixed	0.661	0.734	0.723	0.42	1.08	2	0.814	1.24	1.05
D fixed	0.564	0.774	2.49	0.401	0.73	0.399	0.458	0.956	0.844
E fixed	0.799	1.09	0.957	0.353	0.654	0.338	0.52	0.924	0.899
F fixed	0.754	0.856	0.934	0.625	0.534	1.35	0.897	0.947	1.07
G fixed	0.6	0.488	0.517	0.388	2.43	1.32	0.775	1.16	0.977
H fixed	0.796	1.06	1.35	0.44	0.834	1.29	1.3	1.11	0.947
I fixed	1.16	0.984	0.682	3.42	0.568	0.511	0.548	0.635	0.932
K fixed	0.738	0.476	0.474	0.271	1.45	0.982	1.86	1.3	1.16
L fixed	1.22	1.16	0.965	5.46	0.755	0.456	0.56	0.727	1.51
M fixed	2.28	1.12	0.896	1.64	0.936	0.711	0.911	0.911	1.11
N fixed	1.12	1.15	2.48	0.37	1.05	0.698	0.734	1.01	0.846
P fixed	0.387	0.616	0.222	0.3	1.24	0.475	0.839	0.884	0.759
Q fixed	1.81	1.2	0.956	0.263	1.26	0.619	0.785	0.933	0.8
R fixed	0.846	0.624	0.454	0.192	1.21	0.926	3.26	1.35	1.3
V fixed	1.52	1.02	0.675	1.55	0.831	0.677	0.544	0.687	0.754
W fixed	0.852	2.63	1.14	0.444	0.674	2.61	1.36	1.28	1.14
Y fixed	0.898	1.02	1.08	0.464	0.77	1.64	0.842	0.947	0.909
pThr fixed	1.29	0.81	0.381	0.287	0.37	0.438	0.518	0.756	0.656
pTyr fixed	0.584	0.583	0.681	0.283	0.688	0.498	0.656	0.746	0.791

MARK4, construct: Full length, human (from UniProt Q96L34)
relative phosphorylation
Settings	at +1	at +2	at +3	at +4	at -1	at -2	at -3	at -4	at -5
A fixed	0.923	1	0.855	0.686	1.2	1.82	0.932	1.32	1.32
D fixed	0.605	0.8	1.94	0.629	0.694	0.498	0.552	0.801	0.875
E fixed	0.864	1.08	0.886	0.529	0.582	0.447	0.522	0.844	0.676
F fixed	0.652	0.854	0.919	0.788	0.472	1.08	0.91	0.875	1.03
G fixed	0.706	0.562	0.687	0.611	2.59	1.62	0.951	1.32	1.15
H fixed	0.956	1.01	1.45	0.652	0.868	1.26	1.25	1.11	0.977
I fixed	0.933	0.829	0.653	2.53	0.464	0.599	0.572	0.61	0.818
K fixed	0.83	0.707	0.627	0.517	1.64	0.884	1.65	1.34	1.33
L fixed	1.11	1.14	0.857	4.02	0.668	0.479	0.692	0.726	1.27
M fixed	1.89	0.973	0.879	1.41	0.756	0.62	0.881	1.04	0.969
N fixed	1.17	1.02	2.69	0.601	0.982	0.718	0.695	0.913	0.753
P fixed	0.372	0.785	0.344	0.587	1.37	0.709	1.08	1.1	0.893
Q fixed	1.74	1.11	0.894	0.576	1.3	0.6	0.751	0.775	0.81
R fixed	1.12	0.826	0.592	0.41	1.36	0.97	2.57	1.34	1.2
V fixed	1.29	0.872	0.634	1.27	0.721	0.682	0.634	0.711	0.972
W fixed	0.9	2.44	0.961	0.58	0.581	2.41	1.42	1.17	1.13
Y fixed	0.94	0.991	1.13	0.6	0.758	1.6	0.938	1	0.819
pThr fixed	0.858	0.855	0.4	0.541	0.428	0.577	0.542	0.786	0.706
pTyr fixed	0.58	0.648	0.716	0.471	0.618	0.611	0.636	0.802	0.681

MYLK4, construct: Full length, human (from UniProt Q86YV6)
relative phosphorylation
Settings	at +1	at +2	at +3	at +4	at -1	at -2	at -3	at -4	at -5
A fixed	0.96	0.643	0.61	0.778	0.871	0.876	0.764	1.09	0.837
D fixed	0.566	0.833	0.854	0.974	0.639	0.272	0.32	0.437	0.41
E fixed	0.776	1.04	0.652	0.871	0.49	0.273	0.339	0.628	0.432
F fixed	1.25	1.2	1.59	1.04	0.915	0.405	0.511	0.909	1.23
G fixed	0.814	0.588	0.715	0.858	0.533	0.468	0.544	1.01	0.735
H fixed	0.885	1.27	0.849	0.917	1.13	1.17	0.737	0.907	0.912
I fixed	1.01	1.03	1.05	1.27	0.817	0.485	0.63	1.02	1.25
K fixed	1.28	1.39	0.718	0.807	1.8	1.76	2.19	1.89	1.65
L fixed	1.03	1.02	1.27	1.33	1.74	0.412	0.455	0.915	1.24
M fixed	1.3	0.948	1.09	0.938	1.19	0.5	0.538	0.973	1.06
N fixed	0.921	0.946	1.01	1.05	1.34	0.588	0.498	0.826	0.694
P fixed	0.386	0.713	0.517	1.18	0.775	0.389	0.538	0.743	0.843
Q fixed	1.27	0.949	0.659	1.04	0.889	0.725	0.631	0.925	0.749
R fixed	1.55	1.41	0.808	0.818	1.49	7.39	6.83	2.06	1.85
V fixed	0.981	1.09	0.834	0.982	0.701	0.411	0.507	1.01	1
W fixed	1.13	0.89	2.75	1.27	0.839	0.466	0.517	0.719	0.852
Y fixed	0.888	1.04	1.04	0.883	0.848	0.416	0.449	0.936	1.26
pThr fixed	1.88	1.98	0.701	1.09	0.794	0.666	0.917	0.92	0.692
pTyr fixed	0.998	1.68	1.14	1.15	1.03	0.469	0.94	0.797	0.752

MYLK, construct: aa1425-1771, human (from UniProt Q15746)
relative phosphorylation
Settings	at +1	at +2	at +3	at +4	at -1	at -2	at -3	at -4	at -5
A fixed	0.785	0.75	0.611	0.755	0.803	0.95	0.781	0.743	0.704
D fixed	0.578	0.935	0.68	0.835	0.963	0.38	0.392	0.516	0.472
E fixed	0.631	0.874	0.625	0.747	0.696	0.378	0.403	0.586	0.483
F fixed	0.917	1.27	1.37	1.15	0.87	0.584	0.653	1.45	1.21
G fixed	0.781	0.599	0.713	0.906	0.933	0.631	0.586	0.819	0.737
H fixed	0.706	0.914	0.744	1.28	1.06	1.01	0.876	0.94	0.916
I fixed	1.49	0.99	2.08	0.946	0.789	0.499	0.7	1.06	1.06
K fixed	1.36	1.19	1.03	1.18	1.27	1.93	1.63	1.41	1.21
L fixed	1.01	1.09	1.65	0.952	1.13	0.505	0.619	0.898	1.08
M fixed	1.51	1.26	1.21	0.946	1.17	0.607	0.66	1.05	1.04
N fixed	0.873	0.86	0.771	1.03	1.55	0.834	0.591	0.723	0.677
P fixed	0.615	0.675	0.637	1.01	0.896	0.465	0.556	0.651	0.722
Q fixed	1.32	1.02	0.718	0.987	1.08	1.07	0.777	0.895	0.794
R fixed	1.59	1.56	1.06	1.22	1.49	5.45	5.91	1.86	1.89
V fixed	1.34	0.93	1.14	0.814	0.791	0.521	0.566	1	0.882
W fixed	0.676	0.749	0.907	1.27	0.636	0.594	0.611	1.03	0.875
Y fixed	0.819	1.33	1.05	0.96	0.874	0.587	0.69	1.35	2.24
pThr fixed	1.48	1.39	0.785	1.03	0.744	0.528	0.543	0.678	0.667
pTyr fixed	0.795	1.19	0.925	0.965	1.07	0.51	0.784	0.669	0.772
